Assay results published in patent publication US12692310B2, “ASIC1 channel antagonist antibody” (ShanghaiTech University, priority 2019, dated 2026).
Changes are numbered by the printed parent chain.

T1: hASIC1a-eYFP (human, UniProt P78348 1-528)
T1 construct: whole, on cells; On CHO-K1 cells, stably (6H7) or transiently transfected; also called full-length hASIC1a (1-528 amino acids) fused with eYFP; CHO-K1/hASIC1a cells; not shown: C-terminal eYFP fusion
T1 sequence (looked up): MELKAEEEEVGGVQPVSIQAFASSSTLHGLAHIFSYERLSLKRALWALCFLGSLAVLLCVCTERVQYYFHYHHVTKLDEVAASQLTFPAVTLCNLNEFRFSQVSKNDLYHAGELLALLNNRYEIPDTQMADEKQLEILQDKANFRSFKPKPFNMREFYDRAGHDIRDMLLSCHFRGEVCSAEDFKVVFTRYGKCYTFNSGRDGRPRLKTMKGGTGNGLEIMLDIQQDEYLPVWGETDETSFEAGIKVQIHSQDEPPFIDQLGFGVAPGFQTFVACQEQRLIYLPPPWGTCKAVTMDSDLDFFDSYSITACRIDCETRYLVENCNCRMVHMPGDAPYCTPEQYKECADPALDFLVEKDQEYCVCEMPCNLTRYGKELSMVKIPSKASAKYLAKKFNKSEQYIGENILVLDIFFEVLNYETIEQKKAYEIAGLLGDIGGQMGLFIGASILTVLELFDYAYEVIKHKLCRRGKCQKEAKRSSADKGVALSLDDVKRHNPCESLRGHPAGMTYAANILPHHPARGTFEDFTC

T2: hASIC2a-eYFP (human, UniProt Q16515 1-512)
T2 construct: whole, on cells; Transiently expressed on CHO-K1 cells; not shown: eYFP fusion
T2 sequence (looked up): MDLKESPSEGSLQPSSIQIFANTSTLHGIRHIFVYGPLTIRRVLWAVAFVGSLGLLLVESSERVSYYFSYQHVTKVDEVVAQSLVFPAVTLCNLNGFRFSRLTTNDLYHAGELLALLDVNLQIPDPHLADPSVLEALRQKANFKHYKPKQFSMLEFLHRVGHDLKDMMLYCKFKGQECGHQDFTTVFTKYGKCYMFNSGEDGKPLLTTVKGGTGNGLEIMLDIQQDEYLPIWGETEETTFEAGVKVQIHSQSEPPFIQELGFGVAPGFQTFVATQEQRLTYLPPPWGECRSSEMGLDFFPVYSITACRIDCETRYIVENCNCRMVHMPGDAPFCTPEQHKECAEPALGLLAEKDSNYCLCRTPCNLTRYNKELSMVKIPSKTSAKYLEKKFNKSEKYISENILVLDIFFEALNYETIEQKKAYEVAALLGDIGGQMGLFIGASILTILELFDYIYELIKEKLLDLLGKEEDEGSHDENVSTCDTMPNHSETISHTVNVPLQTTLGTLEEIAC

T3: hASIC1a Y318A mutation (hASIC1a-eYFP) (human, UniProt P78348 1-528)
T3 construct: whole, on cells; Transiently expressed on CHO-K1 cells; not shown: eYFP fusion
T3 sequence (looked up): T1 sequence (looked up) with Y318A

T4: hASIC3a-eYFP (human, UniProt Q9UHC3 1-531)
T4 construct: whole, on cells; Transiently expressed on CHO-K1 cells; not shown: eYFP fusion
T4 sequence (looked up): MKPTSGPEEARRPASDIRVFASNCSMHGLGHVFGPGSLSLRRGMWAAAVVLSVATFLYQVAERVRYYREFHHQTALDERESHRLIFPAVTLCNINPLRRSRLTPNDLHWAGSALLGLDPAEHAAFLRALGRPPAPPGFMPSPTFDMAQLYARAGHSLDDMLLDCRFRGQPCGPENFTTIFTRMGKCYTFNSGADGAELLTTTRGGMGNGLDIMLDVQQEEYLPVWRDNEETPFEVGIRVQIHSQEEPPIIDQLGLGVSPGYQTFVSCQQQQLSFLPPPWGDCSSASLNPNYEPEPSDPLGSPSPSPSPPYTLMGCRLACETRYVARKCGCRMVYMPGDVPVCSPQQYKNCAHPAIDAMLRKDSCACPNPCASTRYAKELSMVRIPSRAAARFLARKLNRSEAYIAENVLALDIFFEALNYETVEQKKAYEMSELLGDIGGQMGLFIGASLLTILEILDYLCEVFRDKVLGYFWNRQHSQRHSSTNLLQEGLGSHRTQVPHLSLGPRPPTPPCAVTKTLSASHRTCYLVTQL

T5: hASIC1a-mCherry (human, UniProt P78348 1-528)
T5 sequence (looked up): T1 sequence (looked up)

B1: ASC06-IgG1 (antibody, V domains shown)
VH: QVQLQQSGGGLVQPGGSLRLSCAASGFTFSSYAMSWVRQAPGKGLEWVSAISGSGGSTYYADSVKGRFTISRDNSKNTLYLQMNSLRAEDTAVYYCAKDSFYGYSKGDWGQGTLVTVSS
VL: QSALTQPASVSGSPGQSITISCTGTSSDVGAYNYVSWYQQQPGKAPKLMIYGVSNRPSGVSNRFSGSKSGNAASLTISGLQAEDEADYYCSSYTSSSTYVFGTGTKLTVLG
notes: also called full length (ASC06-IgG1); ASC06-lgG1

Assays:
[1] = biological target: T6, hASIC1a (hASIC1a-mCherry, 4C12 cells) (Homo sapiens, UniProt P78348); experiment: FLIPR assay of acid-induced ASIC1a-mediated calcium influx in 4C12 cells; type: cell-based; details: at 30 µM
T6 construct: expressed in transfected cells
Description: Calcium Influx. The FLIPR Calcium 5 Assay kit was used to determine the acid-induced calcium influx in the hASIC1a-mCherry-expressing stable CHO-K1 cells (4C12). Cells were seeded in a clear bottom 96-well plate at a density of 10,000 per well 24 h before assay. Assay buffer and dye loading buffer (1.26 mM CaCl2, 0.5 mM MgCl2, 0.4 mM MgSO4, 5.33 mM KCl, 0.44 mM KH2PO4, 4.17 mM NaHCO3, 138 mM NaCl, 0.338 mM Na2HPO4, 20 mM HEPES, pH 7.4) were prepared according to the manufacturer's instruction. Probenecid was added to the dye loading buffer to a final concentration of 2.5 mM immediately before use. Fifty microliters of the assay buffer containing ASC06-IgG1 was incubated with the 4C12 cells for 30 min at 37° C., and an equal volume of the dye loading buffer was added. […] Cells were incubated with the dye loading buffer for 1 h before reading on an FDSS/μCELL plate reader (Hamamatsu). […] The progression curve of the calcium signal produced in each well was recorded continuously for 10 s before the addition of the activation buffer (preread) and 170 s after the addition on an FDSS/μCELL (excitation wavelength: 480 nm; emission wavelength: 540 nm) FLIPR reader. […]
The calcium influx of the ASIC1a was measured on a FLIPR instrument using the stable cell line 4C12 expressing hASIC1a-mCherry fusion. […]

hASIC1a-eYFP [2] = biological target: T1, hASIC1a-eYFP; experiment: flow cytometry on 6H7 cells (stable hASIC1a-eYFP), Alexa555 secondary antibody
Description: In the flow cytometry-binding experiments, ASIC1a-eYFP-expressing stable cells (6H7) were collected and resuspended in ice cold FACS buffer (PBS, 0.05% BSA, 2 mM EDTA). […] After incubating at 4° C. for 15 min, the cells were washed twice and resuspended in the FACS buffer. Cells were sorted and analyzed on a flow cytometer (CytoFLEX S; Beckman Culter) to determine relative binding level by the antibodies to the stable cell lines overexpressing hASIC1a. Mean fluorescent intensities of Alexa555 in eYFP-positive cells were recorded and analyzed to calculate the apparent binding affinity of antibody.

hASIC2a-eYFP = biological target: T2, hASIC2a-eYFP; experiment: flow cytometry, CHO-K1 cells transiently transfected with hASIC2a-eYFP, Alexa555-conjugated ASC06-IgG1
Description: 10,000 cells were sorted.
(§1) The CHO-K1 cells were transiently transfected with these plasmids.

hASIC1b-eYFP (human) = hASIC1b-eYFP (human) (UniProt P78348); experiment: flow cytometry, CHO-K1 cells transiently transfected with hASIC1b-eYFP, Alexa555-conjugated ASC06-IgG1; eYFP-positive cells without antibody signal: Q1-LR(49.22%)
[3] = biological target: T3, hASIC1a Y318A mutation (hASIC1a-eYFP); experiment: flow cytometry, CHO-K1 cells transiently transfected with hASIC1a Y318A-eYFP, ASC06-IgG1 and labelled second antibody
Description: Plasmid encoding single amino acid mutation of hASIC1a-eYFP was constructed and transient transfected into CHO-K1 cells.

hASIC2a/2b-eYFP (human) = hASIC2a/2b-eYFP (human) (UniProt Q16515); experiment: flow cytometry, CHO-K1 cells transiently transfected with hASIC2a/2b-eYFP, Alexa555-conjugated ASC06-IgG1; eYFP-positive cells without antibody signal: Q1-LR(27.09%)
hASIC3a-eYFP = biological target: T4, hASIC3a-eYFP; experiment: flow cytometry, CHO-K1 cells transiently transfected with hASIC3a-eYFP, Alexa555-conjugated ASC06-IgG1
Description: 10,000 cells were sorted.
as §1

hASIC1a-eYFP [4] = biological target: T1, hASIC1a-eYFP; experiment: cell-based or functional assay
hASIC1a-mCherry = biological target: T5, hASIC1a-mCherry; experiment: cell-based or functional assay
[5] = biological target: truncated hASIC1a (amino acids 13-464) (human) (UniProt P78348); experiment: SPR (Biacore T200), single cycle kinetics, Flag-tagged ΔhASIC1a captured on anti-Flag chip, antibody as analyte

Molecule	inhibition of calcium influx [1] [%]	EC50 (hASIC1a-eYFP [2]) [nM]	binding result (hASIC2a-eYFP)	percent of cells in quadrant Q1-UR (Alexa555 and eYFP double-positive) (hASIC1b-eYFP (human)) [%]	binding result [3]	percent of cells in quadrant Q1-UR (Alexa555 and eYFP double-positive) (hASIC2a/2b-eYFP (human)) [%]	binding result (hASIC3a-eYFP)	apparent IC50 of inhibition of acid (pH 6.0)-induced currents, whole-cell patch clamp on the hASIC1a stable cell line (hASIC1a-eYFP [4]) [nM]	IC50 of inhibition of acid-induced calcium influx, FLIPR assay on 4C12 cells (hASIC1a-mCherry) [nM]	Kd [5] [nM]
N=C(N)NC(=O)c1nc(Cl)c(N)nc1N [amiloride]	21	–	–	–	–	–	–	–	–	–
B1	–	2.06	no binding	0.15	no binding	0.11	no binding	85	2.9	7.9
